Data taken from IntAct's records for PubMed 29150600.

Biological target: tlr4_human TLR4 (UniProt O00206)
Sequence (O00206 whole entry): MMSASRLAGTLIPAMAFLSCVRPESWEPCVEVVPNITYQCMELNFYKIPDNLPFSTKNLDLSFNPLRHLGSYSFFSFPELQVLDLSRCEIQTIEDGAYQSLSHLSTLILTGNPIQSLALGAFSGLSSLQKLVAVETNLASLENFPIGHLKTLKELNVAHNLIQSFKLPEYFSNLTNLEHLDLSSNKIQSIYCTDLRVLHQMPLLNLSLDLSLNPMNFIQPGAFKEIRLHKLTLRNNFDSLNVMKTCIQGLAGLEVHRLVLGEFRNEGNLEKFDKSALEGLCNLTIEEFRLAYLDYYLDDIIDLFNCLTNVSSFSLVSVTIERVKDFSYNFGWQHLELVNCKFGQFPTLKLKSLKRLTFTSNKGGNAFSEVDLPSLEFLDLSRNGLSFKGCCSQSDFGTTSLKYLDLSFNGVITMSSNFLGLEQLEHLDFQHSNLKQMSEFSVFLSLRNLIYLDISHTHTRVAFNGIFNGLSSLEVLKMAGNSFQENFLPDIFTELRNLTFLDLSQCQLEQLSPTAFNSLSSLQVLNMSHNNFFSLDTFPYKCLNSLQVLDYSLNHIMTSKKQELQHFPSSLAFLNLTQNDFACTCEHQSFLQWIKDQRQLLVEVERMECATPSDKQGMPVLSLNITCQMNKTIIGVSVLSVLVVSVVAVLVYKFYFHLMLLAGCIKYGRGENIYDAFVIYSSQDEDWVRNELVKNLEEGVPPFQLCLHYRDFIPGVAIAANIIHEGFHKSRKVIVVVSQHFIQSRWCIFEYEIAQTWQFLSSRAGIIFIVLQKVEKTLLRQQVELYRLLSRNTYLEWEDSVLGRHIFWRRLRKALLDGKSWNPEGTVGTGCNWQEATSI

| Substance | effect of a mutation on the interaction |
| --- | --- |
| Tenascin (Homo sapiens), P24821 D2130P;I2133L;N2135S | decreasing interaction strength |
| Tenascin (Homo sapiens), P24821 K2096A;R2098A | decreasing interaction strength |
| Tenascin (Homo sapiens), P24821 K2096A;R2098A;K2100A;K2102A | decreasing interaction strength |
| Tenascin (Homo sapiens), P24821 K2096A;R2098A;K2100A;K2102A;D2130P;I2133L;N2135S | decreasing interaction strength |
| Tenascin (Homo sapiens), P24821 K2100A;K2102A | decreasing interaction strength |
